Measured values reported in patent US20060026702A1, “Phosphoinositide 3-kinase mediated inhibition of GPCRs” (DUKE UNIVERSITY, priority 2002, published 2006).

T1: βARK1 (Bos taurus, UniProt P21146)
T1 construct: gift from Dr. Robert Lefkowitz
T1 sequence (P21146 1-689): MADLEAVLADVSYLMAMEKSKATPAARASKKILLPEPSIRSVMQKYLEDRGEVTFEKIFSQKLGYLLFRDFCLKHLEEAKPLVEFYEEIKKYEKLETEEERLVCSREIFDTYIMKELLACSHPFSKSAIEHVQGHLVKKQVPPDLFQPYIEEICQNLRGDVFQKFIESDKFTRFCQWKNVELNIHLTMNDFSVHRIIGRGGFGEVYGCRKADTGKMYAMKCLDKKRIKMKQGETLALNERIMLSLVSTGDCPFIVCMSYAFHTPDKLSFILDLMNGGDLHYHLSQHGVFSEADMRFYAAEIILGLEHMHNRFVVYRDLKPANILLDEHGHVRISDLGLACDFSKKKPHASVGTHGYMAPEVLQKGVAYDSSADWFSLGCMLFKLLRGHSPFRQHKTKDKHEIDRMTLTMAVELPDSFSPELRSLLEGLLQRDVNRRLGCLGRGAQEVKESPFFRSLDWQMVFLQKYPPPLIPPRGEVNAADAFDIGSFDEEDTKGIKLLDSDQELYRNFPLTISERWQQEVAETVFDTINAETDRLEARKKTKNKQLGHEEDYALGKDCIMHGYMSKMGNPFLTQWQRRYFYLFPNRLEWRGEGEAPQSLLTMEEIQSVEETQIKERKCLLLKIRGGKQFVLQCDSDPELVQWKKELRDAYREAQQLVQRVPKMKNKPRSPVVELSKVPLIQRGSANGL


Assays:
[1] = system: Gβγ subunits of G-protein; assay: Pull-down with purified Gβγ; assay type: binding; conditions: GST-HEAT beads with purified Gβγ
Protocol: Subsequently, 10 μg of purified Gβγ was added to either βARK1 immobilized beads (5 pg), or the GST-HEAT fusion protein beads (5 μg), and gently rocked for 45 min at room temperature. Beads were spun down, washed in binding buffer X2 and resolved by gel electrophoresis. The presence of Gβγ was detected by immunoblotting with an antibody directed against the Gβ subunit. Purified Gβγ and βARK1 were gifts from Dr. Robert Lefkowitz.
Purified βARK1 and GST-HEAT fusion protein immobilized on sepharose beads were incubated with purified Gβγ. The beads were washed and recovered proteins were analyzed by SDS-PAGE followed by immunoblotting with a Gβ polyclonal antibody. […] Purified Gβγ was loaded as a positive control.

βARK1 = biological target: T1, βARK1; assay: Co-immunoprecipitation and GST pull-down with purified βARK1; assay type: binding; conditions: sepharose beads, versus GST alone
Protocol: GST Fusion Protein Expression and Pull-down Experiments—Plasmid DNAs were transformed in Escherichia coli BL21 cells. Overnight cultures were grown in LB medium supplemented with ampicillin (100 μg/ml), diluted to an A600 of 0.2 in the same medium and grown for another 1 hr at 37° C. Cultured cells were then induced with 0.1 mM isopropyl-1-thio-β-D-galactopyranoside for 2 hr. Cell were then pelleted, washed once with 1× phosphate-buffered saline and resuspended in 1× phosphate-buffered saline containing 1 mM phenylmethylsulfonyl fluoride, 2 mg/ml lysozyme and incubated for 15 min on ice. Cells were lysed by adding Triton X-100 1%. Solublized cells were incubated with DNase (300 units) for 15 min on ice and centrifuged at 13,000 rpm for 10 min.
Glutathione-Sepharose beads were added to the supernatant and gently agitated at 4° C. for 2 hr. Beads were washed three times with ice cold 1×PBS containing 1% Triton X-100 followed by three washes with cold PBS without detergent. Protein concentration was determined using a DC protein assay kit (Bio Rad), and the integrity of the fusion protein was analyzed by SDS-polyacrylamide gel electrophoresis and Coomassie staining.
The beads were spun and washed three times with binding buffer followed by three washes with binding buffer without detergent. The beads were resuspended in SDS gel loading buffer and resolved by gel electrophoresis, immunblotting and detection was carried out described later.
FLAG-HEAT and PI3KΔHEAT proteins were immunoprecipitated from cell extracts using monoclonal FLAG and HA antibodies respectively, fractionated by SDS-PAGE and analyzed by immunoblotting with βARK1 monoclonal antibody. […] Levels of expression of HEAT and PI3KΔHEAT proteins were similar (FIG. 8B, lower panel).
To investigate whether there was a direct physical interaction between the HEAT domain of PI3K and βARK1, GST-HEAT fusion protein containing 535-732 amino acid residues of PI3Kγ was produced, which including the entire HEAT domain and flanking upstream 10 amino acids and downstream 7 amino acids. […]

β2AR [2] = biological target: T2, β2AR (Homo sapiens, UniProt P07550); assay: Agonist-induced β2AR phosphorylation, 32P metabolic labeling; assay type: cell-based; conditions: 10 μM isoproterenol 5 min; ΔPI3Kγ co-transfected
T2 construct: expressed in transfected cells; host or cells: HEK-293
Protocol: β2AR Phosphorylation—β2AR phosphorylation was performed in intact cells as previously described. Cells were transfected with plasmids containing the FLAG β2AR (2 μg) and vector DNA (2.5 μg), the FLAG β2AR (2 μg) and PI3Kγ (2.5 μg), or the β2AR (2 μg) and ΔPI3Kγ (2.5 μg). 24 hr after transfection, cells were washed and metabolically labeled for 1 hr with medium containing 100 μCi of ^32P/ml. […] Following centrifugation at 38000×g for 20 min at 4° C., the supernatants were processed for immunoprecipitation of the FLAG-β2AR as described above. Phosphorylated receptors were resolved by 10% SDS-polyacrylamide gel electrophoresis and dried gels subjected to autoradiography.
To directly test the effect of API3Kγ expression on receptor phosphorylation, ^32P; metabolic labeling was performed in HEK-293 cells transfected with plasmids containing FLAG β2AR and either the PI3Kγ or ΔPI3Kγ cDNAs. […] Thus, the effect of overexpression of ΔPI3Kγ on β2AR sequestration is not related to processes that are involved with β2AR phosphorylation or β-arrestin2 recruitment. In FIG. 6D, Agonist (ISO, 5 min) promoted β2AR phosphorylation in transfected cells after ^32Pi metabolic labeling for 1 hour prior to stimulation (upper panel). Lower panel, immunoblot for HA showing equal levels of expression of HA-PI3Kγ and HA-ΔPIβKγ. + represents HA-PI3Kγ control.

β2AR [3] = assay: β2AR sequestration in HEK-293 cells by 125I-Cyanopindolol binding; assay type: cell-based; conditions: 1 μM isoproterenol, 0-30 min; wortmannin 100 nM 15 min before, or co-transfected ΔPI3Kγ
Protocol: Determination of β2AR Sequestration in HEK-293 Cells by ^125I-Cyanopindolol (CYP) Binding—β2AR sequestration was performed as previously described. Briefly, HEK-293 cells were plated at a density of 2.5×10^6 cells/dish and transfected the following day with plasmids containing either the β2AR (150-250 ng), β2AR (250 ng) and HEAT domain (4 μg), PI3Kγ (4.0 μg) or ΔPI3Kγ (4.0 μg) cDNAs. Twelve hours after transfection cells were split into six well Falcon plates at a density of 750,000 cells/well. […] To determine the amount of internalized receptor, 100 μl aliquots of whole cells were added to 150 μl of binding buffer (75 mM Tris-HCl, 10 mM MgCl2, 5 mM EDTA (pH 7.5)). Total binding was determined in the presence of 175 pM ^125I-CYP alone, the number of internalized receptors were determined by using 175 pM ^125I-CYP plus 100 nM CGP12177, and non-specific binding was determined using 175 pM ^125I-CYP plus 1 μM propranolol. Sequestration was calculated as the ratio of (specific receptor binding of ^125I-CYP in the presence of CGP12177)/(specific receptor binding of ^125I-CYP in the absence of CGP12177).

β-arrestin2-GFP = β-arrestin2-GFP recruitment to the membrane by confocal microscopy; assay type: cell-based; conditions: isoproterenol; co-expressed mutant protein
Protocol: Confocal Microscopy—Confocal microscopy was performed as previously described. […] Cells were split into 35 mm^2 dishes with glass bottoms for observation using a Zeiss LSM-510 confocal microscope. […] For analyses of the HEAT domain, HEK 293 cells were transfected with the plasmids containing cDNAs encoding either the β2AR-YFP (2 μg) or β2AR-YFP (2 μg) and HEAT domain (4 μg). Cells were plated onto glass bottom dishes for observation in the confocal microscope. […] Cells were permeablized with 0.1% Triton X-100 in phosphate-buffered saline for 20 min, incubated in 1% BSA in phosphate-buffered saline for 1 hr. Cells were washed with 1× phosphate-buffered saline and incubated with anti-HA or anti-FLAG monoclonal antibody (1:250) with 1% BSA in 1× phosphate-buffered saline for 1 hr. Cells were washed and incubated with goat anti-mouse IgG conjugated with Texas Red (1:500) (Molecular Probes) for 1 hr. Samples were visualized using single sequential line excitation filters at 488 and 568 nm and emission filter sets at 505-550 nm for GFP detection and 585 for Texas Red detection.
To exclude these possibilities cells were co-transfected with plasmids containing FLAG β2AR, β-arrestin2-GFP and either PI3Kγ or ΔPI3Kγ cDNAs, and were monitored for the recruitment of β-arrestin2-GFP using confocal microscopy. […] Marked redistribution of β-arrestin2-GFP to the membrane occurred within 2.5 minutes. […]

binding of purified βARK1 to immobilized fusion protein (βARK1)	level of agonist-induced receptor phosphorylation (β2AR [2])	recruitment of β-arrestin2-GFP to the receptor/membrane after agonist (β-arrestin2-GFP)	Molecule	association of Gβγ [1]	rate of β2AR sequestration (β2AR [3])
bound specifically	–	–	GST-HEAT: GST fusion protein containing 535-732 amino acid residues of PI3Kγ, including the entire HEAT domain (protein, left off: a dimerising Fc or GST, GST fusion protein containing 535-732 amino acid residues of PI3Kγ, including the entire HEAT domain) HPIALPKHQPTPDDRVRAEMPNQLRKQLEAIIATDTAEDKELLWHFRYESLKHPKAYPKLFSSVKWGQQEIVAKTYQLLARREVWDQSALDVGLTMQLLDCNFSDENVRAIAVQKLESLEDDDVLHYLLQLVQAVKFEPYHDSALARFLLKRGLRNKRIGHFLFWFLRSEIAQSRHYQQRFAVILEAYLRGCGTA	no association	–
–	not affected	prompt recruitment	ΔPI3Kγ: HA tagged PI3 Kp110γ mutant, Δ942-981, deletion in ATP binding site; catalytically inactive (protein) MELENYKQPVVLREDNCRRRRRMKPRSAASLSSMELIPIEFVLPTSQRKCKSPETALLHVAGHGNVEQMKAQVWLRALETSVAADFYHRLGPHHFLLLYQKKGQWYEIYDKYQVVQTLDCLRYWKATHRSPGQIHLVQRHPPSEESQAFQRQLTALIGYDVTDVSNVHDDELEFTRRGLVTPRMAEVASRDPKLYAMHPWVTSKPLPEYLWKKIANNCIFIVIHRSTTSQTIKVSPDDTPGAILQSFFTKMAKKKSLMDIPESQSEQDFVLRVCGRDEYLVGETPIKNFQWVRHCLKNGEEIHVVLDTPPDPALDEVRKEEWPLVDDCTGVTGYHEQLTIHGKDHESVFTVSLWDCDRKFRVKIRGIDIPVLPRNTDLTVFVEANIQHGQQVLCQRRTSPKPFTEEVLWNVWLEFSIKIKDLPKGALLNLQIYCGKAPALSSKASAESPSSESKGKVRLLYYVNLLLIDHRFLLRRGEYVLHMWQISGKGEDQGSFNADKLTSATNPDKENSMSISILLDNYCHPIALPKHQPTPDPEGDRVRAEMPNQLRKQLEAIIATDPLNPLTAEDKELLWHFRYESLKHPKAYPKLFSSVKWGQQEIVAKTYQLLARREVWDQSALDVGLTMQLLDCNFSDENVRAIAVQKLESLEDDDVLHYLLQLVQAVKFEPYHDSALARFLLKRGLRNKRIGHFLFWFLRSEIAQSRHYQQRFAVILEAYLRGCGTAMLHDFTQQVQVIEMLQKVTLDIKSLSAEKYDVSSQVISQLKQKLENLQNSQLPESFRVPYDPGLKAGALAIEKCKVMASKKKPLWLEFKCADPTALSNETIGIIFKHGDDLRQDMLILQILRIMESIWETESLDLCLLPYGCISTGDKIGMIEIVKDATTIAKIQQSTVGNTGAFKDEVLNHWLKEKSPTEEKFQAAVERFVYSCAGYCVATFVLGIGDRVPFVLTPDFLFVMGTSGKKTSPHFQKFQDICVKAYLALRHHTNLLIIILFSMMLMTGMPQLTSKEDIEYIRDALTVGKNEEDAKKYFLDQIEVCRDKGWTVQFNWFLHLVLGIKQGEKHSAYPYDVPDYA	–	significant attenuation
